Data reported in paper PMC5016229.

Biological target: RSV F DS-Cav1 (human respiratory syncytial virus | bacteriophage T4) (UniProt P03420)
Test: SEC

## RSV F DS-Cav1 (from UniProt P03420 26-109; P03420 137-513) (domain or fragment)
  stoichiometry N: 3
